# Results from the supplement of paper PMC9112550, “Optimization of the antimicrobial peptide Bac7 by deep mutational scanning” (BMC Biology, 2022).
# System: Escherichia coli TOP10
# Assay: shrunken log2 fold change of peptide-encoding DNA abundance (4.5 h post-induction vs induction); higher = less antimicrobial activity (less host growth inhibition)
# Conditions: time post-induction: 4.5 h; library: site-saturation at positions 5, 18, 19, 20
# 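Further: peptides expressed intracellularly from a pBAD plasmid library in pooled LB shake-flask culture, induced with 0.3% L-arabinose, DNA abundance read by NGS, three biological replicates, DESeq2 with apeglm shrinkage.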
row,Sequence,shrunken log2 fold change
1,RRIRHRPPRLPRPRPRPNIGPRP,-0.431
2,RRIRDRPPRLPRPRPRPCLDPRP,-0.0178
3,RRIRERPPRLPRPRPRPDYSPRP,-1.47
4,RRIRVRPPRLPRPRPRPTTAPRP,0.181
5,RRIRERPPRLPRPRPRPAMLPRP,-0.155
6,RRIRTRPPRLPRPRPRPFYFPRP,-0.57
7,RRIRGRPPRLPRPRPRPAMHPRP,1.03
8,RRIRKRPPRLPRPRPRPALVPRP,0.623
9,RRIRIRPPRLPRPRPRPFKMPRP,-0.568
10,RRIRWRPPRLPRPRPRPSCEPRP,0.19
11,RRIRHRPPRLPRPRPRPGVMPRP,-0.0309
12,RRIRNRPPRLPRPRPRPILTPRP,-0.135
13,RRIRVRPPRLPRPRPRPDPAPRP,0.142
14,RRIRHRPPRLPRPRPRPFWDPRP,-0.0244
15,RRIRMRPPRLPRPRPRPRMWPRP,1.04
16,RRIRKRPPRLPRPRPRPMCAPRP,0.583
17,RRIRIRPPRLPRPRPRPRKAPRP,-0.000442
18,RRIRMRPPRLPRPRPRPGQFPRP,0.0853
19,RRIRARPPRLPRPRPRPKMKPRP,0.131
20,RRIRKRPPRLPRPRPRPQTIPRP,0.0582
21,RRIRARPPRLPRPRPRPLTLPRP,0.0472
22,RRIRCRPPRLPRPRPRPNMGPRP,-0.14

row,Sequence,shrunken log2 fold change
1,RRIRVRPPRLPRPRPRPYWMPRP,-0.227
2,RRIRERPPRLPRPRPRPTIGPRP,-0.323
3,RRIRFRPPRLPRPRPRPSIFPRP,-0.579
4,RRIRIRPPRLPRPRPRPRLLPRP,-0.003
5,RRIRNRPPRLPRPRPRPPDQPRP,0.184
6,RRIRDRPPRLPRPRPRPGPSPRP,-0.0742
7,RRIRDRPPRLPRPRPRPKDNPRP,-0.116
8,RRIRHRPPRLPRPRPRPFIDPRP,-0.121
9,RRIRQRPPRLPRPRPRPNQFPRP,0.0334
10,RRIRDRPPRLPRPRPRPALLPRP,1.02
11,RRIRGRPPRLPRPRPRPFVRPRP,0.0432
12,RRIRMRPPRLPRPRPRPEMCPRP,3.01
13,RRIRKRPPRLPRPRPRPYRQPRP,-0.122
14,RRIRWRPPRLPRPRPRPFDYPRP,-0.554
15,RRIRMRPPRLPRPRPRPYWHPRP,-0.305
16,RRIRWRPPRLPRPRPRPFIEPRP,-0.441
17,RRIRWRPPRLPRPRPRPKYIPRP,-0.0755
18,RRIRWRPPRLPRPRPRPELLPRP,0.485
19,RRIRTRPPRLPRPRPRPDTTPRP,-0.0469
20,RRIRKRPPRLPRPRPRPDPNPRP,0.0802
21,RRIRHRPPRLPRPRPRPCNWPRP,-0.0331
22,RRIRKRPPRLPRPRPRPHCQPRP,0.101

row,Sequence,shrunken log2 fold change
1,RRIRSRPPRLPRPRPRPVREPRP,0.723
2,RRIRARPPRLPRPRPRPTREPRP,0.573
3,RRIRFRPPRLPRPRPRPVPHPRP,-0.342
4,RRIRSRPPRLPRPRPRPAGRPRP,0.287
5,RRIRTRPPRLPRPRPRPDPNPRP,0.0586
6,RRIRMRPPRLPRPRPRPACMPRP,0.64
7,RRIRDRPPRLPRPRPRPRVKPRP,0.103
8,RRIRFRPPRLPRPRPRPTTYPRP,-0.608
9,RRIRLRPPRLPRPRPRPQVTPRP,0.0952
10,RRIRRRPPRLPRPRPRPANTPRP,0.0917
11,RRIRCRPPRLPRPRPRPYSMPRP,-0.905
12,RRIRWRPPRLPRPRPRPMRYPRP,-0.0679
13,RRIRPRPPRLPRPRPRPGTMPRP,-0.133
14,RRIRKRPPRLPRPRPRPGIQPRP,0.0822
15,RRIRDRPPRLPRPRPRPTCLPRP,0.653
16,RRIRPRPPRLPRPRPRPYTKPRP,-0.0218
17,RRIRTRPPRLPRPRPRPWYLPRP,-0.0692
18,RRIRFRPPRLPRPRPRPPDCPRP,0.191
19,RRIRQRPPRLPRPRPRPLCEPRP,-0.0868
20,RRIRSRPPRLPRPRPRPQPDPRP,-0.185
21,RRIRGRPPRLPRPRPRPGKMPRP,0.224
22,RRIRWRPPRLPRPRPRPPFLPRP,0.26

row,Sequence,shrunken log2 fold change
1,RRIRIRPPRLPRPRPRPPVQPRP,-0.0716
2,RRIRDRPPRLPRPRPRPQKHPRP,-0.108
3,RRIRFRPPRLPRPRPRPVAGPRP,0.128
4,RRIRHRPPRLPRPRPRPHCQPRP,-0.0776
5,RRIRDRPPRLPRPRPRPPSWPRP,0.102
6,RRIRRRPPRLPRPRPRPMANPRP,0.136
7,RRIRGRPPRLPRPRPRPADMPRP,0.373
8,RRIRARPPRLPRPRPRPAFGPRP,0.6
9,RRIRMRPPRLPRPRPRPWDDPRP,0.533
10,RRIRTRPPRLPRPRPRPFNFPRP,-0.617
11,RRIRIRPPRLPRPRPRPWKQPRP,-0.00674
12,RRIRARPPRLPRPRPRPFKWPRP,-0.176
13,RRIRMRPPRLPRPRPRPWTTPRP,-0.0163
14,RRIRPRPPRLPRPRPRPMEKPRP,-0.00992
15,RRIRDRPPRLPRPRPRPCHWPRP,-0.00151
16,RRIRIRPPRLPRPRPRPHHDPRP,-0.515
17,RRIRKRPPRLPRPRPRPHIIPRP,0.0119
18,RRIRLRPPRLPRPRPRPDMTPRP,-0.0167
19,RRIRTRPPRLPRPRPRPPFIPRP,-0.177
20,RRIRTRPPRLPRPRPRPDWSPRP,0.163
21,RRIRGRPPRLPRPRPRPMYMPRP,-0.169
22,RRIRSRPPRLPRPRPRPVQMPRP,0.0426

row,Sequence,shrunken log2 fold change
1,RRIRSRPPRLPRPRPRPCRIPRP,-0.263
2,RRIRNRPPRLPRPRPRPACLPRP,0.146
3,RRIRIRPPRLPRPRPRPLMDPRP,-0.396
4,RRIRHRPPRLPRPRPRPFTNPRP,-0.0272
5,RRIRFRPPRLPRPRPRPMLDPRP,-0.365
6,RRIRTRPPRLPRPRPRPRIFPRP,-0.158
7,RRIRYRPPRLPRPRPRPNAAPRP,0.216
8,RRIRARPPRLPRPRPRPPVFPRP,0.416
9,RRIRGRPPRLPRPRPRPVEYPRP,-0.0779
10,RRIRFRPPRLPRPRPRPRYCPRP,-0.647
11,RRIRARPPRLPRPRPRPIVHPRP,-0.311
12,RRIRSRPPRLPRPRPRPRGCPRP,0.383
13,RRIRGRPPRLPRPRPRPDMHPRP,0.512
14,RRIRHRPPRLPRPRPRPQQPPRP,0.176
15,RRIRYRPPRLPRPRPRPGDHPRP,0.0294
16,RRIRNRPPRLPRPRPRPTKLPRP,0.0886
17,RRIRSRPPRLPRPRPRPKTEPRP,-0.0689
18,RRIRLRPPRLPRPRPRPPFRPRP,0.526
19,RRIRYRPPRLPRPRPRPNADPRP,-0.0823
20,RRIRKRPPRLPRPRPRPCSAPRP,-0.0728
21,RRIRWRPPRLPRPRPRPGGDPRP,0.556
